Measurements taken from patent US9475855B2, “Human Notch3 based fusion proteins as decoy inhibitors of Notch3 signaling” (THE TRUSTEES OF COLUMBIA UNIVERSITY IN THE CITY OF NEW YORK, priority 2008, dated 2016).

Key:
[1] = test system: Notch1 signaling; test: co-culture assay of ligand-induced Notch signaling (CSL-luciferase reporter; HeLa expressing Notch1, ligand-expressing 293/Bosc cells); assay type: cell-based; settings: for activation of Notch1 signaling by Notch ligands: N1ECD/Fc expression vector co-transfected with full-length Notch1 and CSL-luciferase reporter in HeLa cells, co-culture with ligand expressing cells
Method: Notch and Notch responsive transcriptional reporters are expressed in a “Notch-responsive” cell, HeLa. Notch ligands, Jagged-1, Delta-like 1, or Delta-like 4 are expressed in a “ligand-presenting” cell, 293. Expression is mediated by transfection of individual cell populations, cells are co-cultured, and then assayed for Notch-dependent reporter activity.
To determine ligand-induced Notch signaling, co-culture assays were performed using HeLa and 293-derived Bosc cells. Transient transfections were performed by calcium phosphate precipitation. Hela cells plated 1-day prior in 10-cm plates at 1.5×10^6 were transfected with 333 ng of pBOS Notch1, 333 ng pGA981-6, and 83 ng pLNC lacZ with either 666 ng pCMV-Fc or pHyTC-N1ECDFc (333 ng for x1, 666 ng for x2). Bosc cells plated 1-day prior in 10-cm plates at 4×10^6 were transfected with either 680 ng pHyTc-Jagged1, pHyTc-Dll1, pHyTc-Dll4, or pHyTc-x (empty vector). One day after transfection, the cells were co-cultured in triplicate (HeLa:Bosc, 1:2) on 12-well plates for 24 hours. Cells were harvested and luciferase activity was determined 2-days post-transfection using the Enhanced Luciferase assay kit (BD PharMingen), and […] activity was determined using the Galacto-Light Plus kit (PE Biosystems). All assays were performed in a Berthold dual-injection luminometer.
An in vitro co-culture system (FIG. 3) with ligands expressed on one cell and Notch receptor activation scored in another cell was used to measure transcriptional activation of the Notch pathway. […] The N1ECD/Fc expression vector was co-transfected at different ratios with full-length Notch1 and the CSL-luciferase reporter in HeLa cells, followed by co-culture with ligand expressing 293 cells. We observed that activation of Notch1 signaling by Notch ligands was reduced by N1ECD/Fc expression. […] Notch1ECD/Fc could block signaling mediated by Jagged1, Delta-like 1 or Delta-like 4.

[2] = test system: CBF1 promoter activity; test: VEGF-induced Notch signaling, CBF1 promoter (CSL-luciferase) reporter activity in HUVEC; assay type: cell-based, human; settings: for inhibition of CBF1 promoter activity induced by Ad-VEGF: 40 MOI for each adenovirus; for VEGF-induced CBF1 promoter / CSL-luciferase reporter activity: Ad-VEGF-transduced HUVEC
Method: To determine VEGF-induced Notch signaling, HUVEC which were infected with adenovirus were used. HUVEC plated 1-day prior in 6 well plates at 8.0×10^5 were infected with either Ad-LacZ as control or Ad-VEGF at indicated m.o.i. in the presence or absence of Ad-N1ECD/Fc. Two days after infection, infected HUVEC were re-seeded into 24-well plate at 1.5×10^5 cell in triplicate and cultured for 24 hours, and then transfected with 12.5 ng pRL-SV40 (Promega) and 137.5 ng pGA981-6 using Effectene transfection reagent (Qiagen). Cells were harvested either 1 or 2 days post-transfection and luciferase activity was determined by using the Dual-Luciferase® Reporter Assay System (Promega).
One can measure Notch signaling function by measuring transcriptional activity of CBF1 promoter, which is activated by binding of Notch-IC to CBF1. We measured CBF1 promoter activity in HUVEC which was infected with adenovirus encoding VEGF-165 at different MOI (FIG. 6). Induction of CBF1 promoter was clearly detected in Ad-VEGF-infected HUVEC, compared to Ad-LacZ-infected cells in the MOI dependent manner. […] Thus VEGF induced Notch signaling activity.

[3] = test system: HUVEC; test: HUVEC proliferation (CCK-8 kit); assay type: cell-based, human; settings: transduced N1ECDFc, complete medium, 4 days
Method: These Figures show proliferation of Ad-VEGF165-transduced HUVEC. HUVEC were transduced with Ad-VEGF165 at the indicated dosages. Ad-LacZ was also co-infected to make the same total amount of adenovirus at a MOI of 40 pfu/cell. HUVEC were suspended in SFM supplemented with 1% FBS and then plated at 1×10^4 cells/well in 24-well multi-wll plates with 0.4 ml of medium. After 4 days, cell numbers were determined using the CCK-8 kit and the results are indicated as the ratio of cell numbers determined to the number of control cells, which were transduced with Ad-GFP at a MOI of 40 pfu/cell. […] Ad-VEGF-transduced HUVEC were treated with SU5416 at the indicated dosages.
These Figures show the effect of alteration of Notch signaling on cell proliferation. The cells were transduced with the indicated adenoviruses. Ad-GFP was also co-infected to make the same total amount of adenovirus at a MOI of 60 pfu/cell. After 4 days, cell numbers were determined using the CCK-8 kit and results are indicated as the ratio of cell numbers determined to the number of control cells, which were transduced with AD-GFP at MOI of 60 pfu/cell. […] Transduced HUVEC were suspended in complete medium and then plated at 1×10^4 cells/well in 24-well multiwell plates with 0.4 ml of indicated medium (□: Ad-N1IC; ▪: Ad-N1ECDFc). […]

[4] = test system: MMP9; test: gelatin zymography of conditioned medium, MMP-9; assay type: cell-based, human; settings: co-transduction with Ad-VEGF, fibrin gel
Method: (§1) FIGS. 24A-B show gelatin zymography analysis of MMP-9 and MMP-2 activity stimulated by VEGF in HUVEC. […] Transduced HUVEC were cultured on fibrin gel on the indicated day (i.e. D2, D4, D6, D8). Similar results were also obtained by using collagen gel, although induction of MMP-9 was stronger on fibrin gel than collagen gel (data not shown). […] HUVEC were transduced with Ad-N1ECDFc at the indicated doses and condition medium was collected from HUVEC cultured on collagen gel at day 4. FIGS. 24C-D show up-regulation of MMP-9 and MT1-MMP with Notch signaling. HUVEC were transduced with either Ad-LacZ or Ad-N1IC at 40 MOI. Numbers show PCR cycles. […] HUVEC were transduced with Ad-VEGF in the absence or presence of co-transduction of Ad-N1ECDFc at 40 MOI each. Ad-LacZ was co-transduced to make the same total amount of adenovirus at 80 MOI.
(§2) Requisition of MMPs for angiogenic sprouting has been established by synthetic MMP inhibitors (16). GM6001 is one broad inhibitor against MMPs including MMP2, MMP9 and MT1-MMP (18).

[5] = test system: MMP2; test: gelatin zymography of conditioned medium, MMP-2; assay type: cell-based, human; settings: co-transduction with Ad-VEGF, collagen gel, day 4
Method: as §1, §2

[6] = test system: MMP9; test: RT-PCR analysis of MMP9 expression in HUVEC; assay type: cell-based, human
Method: as §1, §2

B1: N1ECDFc: Notch-based fusion protein or decoy: Notch1 extracellular domain EGF repeats fused to Fc; expressed from plasmid or adenovirus (Ad-N1ECDFc) (protein)
chain: ARGLRCSQPSGTCLNGGRCEVANGTEACVCSGAFVGQRCQDPSPCLSTPCKNAGTCYVVDHGGIVDYACSCPLGFSGPLCLTPLANACLANPCRNGGTCDLLTLTEYKCRCPPGWSGKSCQQADPCASNPCANGGQCLPFESSYICGCPPGFHGPTCRQDVNECSQNPGLCRHGGTCHNEIGSYRCACRATHTGPHCELPYVPCSPSPCQNGGTCRPTGDTTHECACLPGFAGQNCEENVDDCPGNNCKNGGACVDGVNTYNCRCPPEWTGQYCTEDVDECQLMPNACQNAGTCHNSHGGYNCVCVNGWTGEDCSDNIDDCASAACFQGATCHDRVASFYCECPHGRTGLLCHLNDACISNPCNEGSNCDTNPVNGKAICTCPRGYTGPACSQDVDECALGANPCEHAGKCLNTLGSFECQCLQGYTGPRCEIDVNECISNPCQNDATCLDQIGEFQCICMPGYEGVYCEINTDECASSPCLHNGRCVDKINEFLCQCPKGFSGHLCQYDVDECASTPCKNGAKCLDGPNTYTCVCTEGYTGTHCEVDIDECDPDPCHIGLCKDGVATFTCLCQPGYTGHHCETNINECHSQPCRHGGTCQDRDNYYLCLCLKGTTGPNCEINLDDCASNPCDSGTCLDKIDGYECACEPGYTGSMCNVNIDECAGSPCHNGGTCEDGIAGFTCRCPEGYHDPTCLSEVNECNSNPCIHGACRDGLNGYKCDCAPGWSGTNCDINNNECESNPCVNGGTCKDMTSGYVCTCREGFSGPNCQTNINECASNPCLNQGTCIDDVAGYKCNCPLPYTGATCEVVLAPCATSPCKNSGVCKESEDYESFSCVCPTGWQGQTCEIDINECVKSPCRHGASCQNTNGSYRCLCQAGYTGRNCESDIDDCRPNPCHNGGSCTDGVNAAFCDCLPGFQGAFCEEDINECATNPCQNGANCTDCVDSYTCTCPTGFNGIHCENNTPDCTESSCFNGGTCVDGINSFTCLCPPGFTGSYCQYDVNECDSRPCLHGGTCQDSYGTYKCTCPQGYTGLNCQNLVRWCDSAPCKNGGKCWQTNTQYHCECRSGWTGFNCDVLSVSCEVAAQKRGIDVTLLCQHGGLCVDEEDKHYCHCQAGYTGSYCEDEVDECSPNPCQNGATCTDYLGGFSCKCVAGYHGSNCSEEINECLSQPCQNGGTCIDLTNTYKCSCPRGTQGVHCEINVDDCHPPLDPASRSPKCFNNGTCVDQVGGYTCTCPPGFVGERCEGDVNECLSNPCDPRGTQNCVQRVNDFHCECRAGHTGRRCESVINGCRGKPCRNGGVCAVASNTARGFICRCPARFEGATCENDARTCGSLRCLNGGTCISGPRSPTCLCLGSFTGPECQFPASSPCVGSNPCYNQGTCEPTSESPFYRCLCPAKFNGLLCHILDYSFTDLGPG
modifications: left off: a dimerising Fc or GST
[1]; 2:1 ratio of N1ECD/Fc to Notch1 compared with 1:1 ratio
  concentration-dependency of inhibiting signaling: more effective
[1]
  activation of Notch1 signaling by Notch ligands: inhibition
[1]; listed as N1ECD/Fc
  activation of Notch1 signaling by Notch ligands: reduced
[1]; co-culture with Delta-like 1 expressing cells
  signaling mediated by Delta-like 1: block
[1]; co-culture with Delta-like 4 expressing cells
  signaling mediated by Delta-like 4: block
[1]; co-culture with Jagged1 expressing cells
  signaling mediated by Jagged1: block
[2]; 24 hr after reporter gene transfection
  inhibition of CBF1 promoter activity induced by Ad-VEGF: 60%
[2]; 48 hr after reporter gene transfection
  inhibition of CBF1 promoter activity induced by Ad-VEGF: 90%
[2]
  VEGF-induced CBF1 promoter / CSL-luciferase reporter activity: clearly decreased
[2]; listed as Notch fusion protein
  VEGF-induced CBF1 promoter / CSL-luciferase reporter activity: clearly reduced
[3]
  proliferation of HUVEC: did not clearly alter
[4]
  induction and activation of MMP9: inhibition
[5]
  activation of MMP2: inhibition
[6]; Ad-N1ECDFc infection alone, Ad-LacZ infected HUVEC (data not shown)
  expression of MMP9: did not affect
[6]; Ad-VEGF-HUVEC, co-transduction at 40 MOI each
  VEGF-induced up-regulation of MMP9 mRNA: inhibited
